Tested on: NC(=O)c1ccc[n+]([C@@H]2O[C@H](COP(=O)(O)OP(=O)(O)OC[C@H]3O[C@@H](n4cnc5c(N)ncnc54)[C@H](OP(=O)(O)O)[C@@H]3O)[C@@H](O)[C@H]2O)c1
Assay: purified protein
Details: varied: cofactor

PtmO8 (Streptomyces platensis)
Km: (1.11 ± 0.11) × 10^3 µM
Vmax: 3.7 µM/min
kcat: 110 s⁻¹
kcat/Km: 100000 M⁻¹ s⁻¹
